Experimental data reported in PMC10205607, “MAP4K3 inhibits Sirtuin-1 to repress the LKB1–AMPK pathway to promote amino acid-dependent activation of the mTORC1 complex” (Life Science Alliance, 2023).

Target: T1, FLAG-LKB1 (UniProt Q15831 1-433)
T1 construct: Liver kinase B1 (LKB1); also called liver kinase B1; source: HEK293A (WT or MAP4K3 k.o.), transfected, in lysate
T1 sequence (looked up): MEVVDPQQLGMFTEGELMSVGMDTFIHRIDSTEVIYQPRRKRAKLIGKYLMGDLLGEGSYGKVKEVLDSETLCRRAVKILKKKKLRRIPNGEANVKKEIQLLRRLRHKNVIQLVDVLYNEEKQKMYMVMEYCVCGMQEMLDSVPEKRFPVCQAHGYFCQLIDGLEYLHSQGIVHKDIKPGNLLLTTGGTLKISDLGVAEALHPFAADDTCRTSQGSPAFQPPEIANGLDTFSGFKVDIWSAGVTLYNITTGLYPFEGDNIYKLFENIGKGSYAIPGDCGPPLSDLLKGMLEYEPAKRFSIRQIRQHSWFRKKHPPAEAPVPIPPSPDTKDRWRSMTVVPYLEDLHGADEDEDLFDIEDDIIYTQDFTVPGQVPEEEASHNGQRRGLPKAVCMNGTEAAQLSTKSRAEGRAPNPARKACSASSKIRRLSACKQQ
Assay: co-IP; anti-FLAG IP from lysates of co-transfected HEK293A cells (WT or MAP4K3 k.o.), blot with anti-HA and anti-FLAG; lysis buffer 25 mM HEPES-KOH pH 7.4, 150 mM NaCl, 5 mM EDTA, 1% Triton X-100; 2 h at 4°C
Settings: partners not purified

- fold change of the co-precipitate against WT SIRT1 with LKB1 (in MAP4K3 k.o. cells): ~2 fold
B1: SIRT1-HA-T344D (enzyme, UniProt Q96EB6 1-747, looked up)
chain: MADEAALALQPGGSPSAAGADREAASSPAGEPLRKRPRRDGPGLERSPGEPGGAAPEREVPAAARGCPGAAAAALWREAEAEAAAAGGEQEAQATAAAGEGDNGPGLQGPSREPPLADNLYDEDDDDEGEEEEEAAAAAIGYRDNLLFGDEIITNGFHSCESDEEDRASHASSSDWTPRPRIGPYTFVQQHLMIGTDPRTILKDLLPETIPPPELDDMTLWQIVINILSEPPKRKKRKDINTIEDAVKLLQECKKIIVLTGAGVSVSCGIPDFRSRDGIYARLAVDFPDLPDPQAMFDIEYFRKDPRPFFKFAKEIYPGQFQPSLCHKFIALSDKEGKLLRNYDQNIDTLEQVAGIQRIIQCHGSFATASCLICKYKVDCEAVRGDIFNQVVPRCPRCPADEPLAIMKPEIVFFGENLPEQFHRAMKYDKDEVDLLIVIGSSLKVRPVALIPSSIPHEVPQILINREPLPHLHFDVELLGDCDVIINELCHRLGGEYAKLCCNPVKLSEITEKPPRTQKELAYLSELPPTPLHVSEDSSSPERTSPPDSSVIVTLLDQAAKSNDDLDVSESKGCMEEKPQEVQTSRNVESIAEQMENPDLKNVGSSTGEKNERTSVAGTVRKCWPNRVAKEQISRRLDGNQYLFLPPNRYIFHGAEVYSDSEDDVLSSSSCGSNSDSGTCQSPSLEEPMEDESEIEEFYNGLEDEPDVPERAGGAGFGTDGDDQEAINEAISVKQEVTDMNYPSNKS
notes: Derived from the SIRT1-HA construct; also called SIRT1-T344D; SIRT1-T344D-HA; source: MAP4K3 k.o; HEK293A (M4 line), transfected, in lysate
